Source: PMC4536007, “Modulation of the Activity of Mycobacterium tuberculosis LipY by Its PE Domain” (PLoS ONE, 2015)

B1: LipY (enzyme)
chain: MVSYVVALPEVMSAAATDVASIGSVVATASQGVAGATTTVLAAAEDEVSAAIAALFSGHGQDYQALSAQLAVFHERFVQALTGAAKGYAAAELANASLLQSEFASGIGNGFATIHQEIQRAPTALAAGFTQVPPFAAAQAGIFTGTPSGAAGFDIASLWPVKPLLSLSALETHFAIPNNPLLALIASDIPPLSWFLGNSPPPLLNSLLGQTVQYTTYDGMSVVQITPAHPTGEYVVAIHGGAFILPPSIFHWLNYSVTAYQTGATVQVPIYPLVQEGGTAGTVVPAMAGLISTQIAQHGVSNVSVVGDSAGGNLALAAAQYMVSQGNPVPSSMVLLSPWLDVGTWQISQAWAGNLAVNDPLVSPLYGSLNGLPPTYVYSGSLDPLAQQAVVLEHTAVVQGAPFSFVLAPWQIHDWILLTPWGLLSWPQINQQLGIAA
notes: LipY, PE protein with a C-terminal triglyceride lipase domain, Mycobacterium tuberculosis; 45 kDa; full length (LipYΔPE ends at residue 437); also called full length LipY; not shown: His tag, C-terminal, kept
B2: PE domain of LipY (domain or fragment)
chain: MVSYVVALPEVMSAAATDVASIGSVVATASQGVAGATTTVLAAAEDEVSAAIAALFSGHGQDYQALSAQLAVFHERFVQALTGAAKGYAAAELANASLLQSEFASGIGNGFATIHQEIQRAPTALAAGFTQVPPFAAAQAGIFTGTPSG
notes: LipY, Mycobacterium tuberculosis, residues 1-149 (PE domain with the linker up to the cleavage site); not shown: His tag, C-terminal, kept

Molecular target: the molecule itself
Test: SEC; […] (20 mM HEPES pH 7, 100 mM NaCl, 10% glycerol); […]

Protein	binding result
B1	binds
B2	binds
